Data: article PMC3042207 (British Journal of Pharmacology, 2011)
Residue numbers refer to the chain shown, from its start. Numbers in names are those of the source. Where “and” joins values, the source holds several entries; their conditions need not be identical. Equal values may be shown once. Read-outs that look alike come from different tables or passages of the source. Each block holds one molecule with its values, some of them ahead of it.

Tests used:
CYP2C8 = settings: ref Ong et al., 2000; cited from earlier work
[1] = tested on: human liver microsomes (HLM); experiment: CYP inhibition: 4-HPR metabolite formation in HLM with CYP inhibitors; assay type: in vitro ADME; settings: HLM + 4-HPR; inhibitor alone at 100 µM
[2] = substrate: CC1=C(/C=C/C(C)=C/C=C/C(C)=C/C(=O)Nc2ccc(O)cc2)C(C)(C)CCC1; experiment: Metabolism of 4-HPR by CYP2C8 supersomes; assay type: in vitro ADME, human; settings: other: CYP2C8 supersomes; 4-HPR 0-20 µM, 3 h; 37.0 °C
[3] = substrate: CC1=C(/C=C/C(C)=C/C=C/C(C)=C/C(=O)Nc2ccc(O)cc2)C(C)(C)CCC1; assay type: in vitro ADME, human; settings: other: CYP2C8*3, E. coli membranes; 4-HPR 0-20 µM, 3 h; pH 5.0
[4] = substrate: CC1=C(/C=C/C(C)=C/C=C/C(C)=C/C(=O)Nc2ccc(O)cc2)C(C)(C)CCC1; experiment: Metabolism of 4-HPR by CYP3A5 supersomes; assay type: in vitro ADME, human; settings: other: CYP3A5 supersomes; 4-HPR 0-20 µM, 3 h; 37.0 °C
[5] = substrate: CC1=C(/C=C/C(C)=C/C=C/C(C)=C/C(=O)Nc2ccc(O)cc2)C(C)(C)CCC1; experiment: Glucuronidation of 4-HPR by UGT 1A6 supersomes; assay type: in vitro ADME, human; settings: other: UGT 1A6, 1 mg·mL^−1; 4-HPR 0-2000 µM, 3 h; 37.0 °C
[6] = substrate: CC1=C(/C=C/C(C)=C/C=C/C(C)=C/C(=O)Nc2ccc(O)cc2)C(C)(C)CCC1; experiment: Glucuronidation of 4-HPR by UGT 1A1 supersomes; assay type: in vitro ADME, human; settings: other: UGT 1A1, 1 mg·mL^−1; 4-HPR 0-2000 µM, 3 h; 37.0 °C
[7] = substrate: CC1=C(/C=C/C(C)=C/C=C/C(C)=C/C(=O)Nc2ccc(O)cc2)C(C)(C)CCC1; experiment: Glucuronidation of 4-HPR by UGT 1A3 supersomes; assay type: in vitro ADME, human; settings: other: UGT 1A3, 1 mg·mL^−1; 4-HPR 0-2000 µM, 3 h; 37.0 °C

Molecule: CC(=O)N1CCN(c2ccc(OCC3COC(Cn4ccnc4)(c4ccc(Cl)cc4Cl)O3)cc2)CC1 (centres unmarked) [Ketoconazole, ketoconazole]
- concentrations at which CYP2C8 is markedly inhibited (CYP2C8): > 10 µM

- effect on production of 4′-OH 4-HPR and 4′-oxo 4-HPR, inhibitor alone [1]: very little effect
Molecule: COc1ccc2[nH]c([S+]([O-])Cc3ncc(C)c(OC)c3C)nc2c1 (centres unmarked) [Omeprazole, omeprazole]

B1: CYP2C8 (Homo sapiens) (protein)
chain: MEPFVVLVLCLSFMLLFSLWRQSCRRRKLPPGPTPLPIIGNMLQIDVKDICKSFTNFSKVYGPVFTVYFGMNPIVVFHGYEAVKEALIDNGEEFSGRGNSPISQRITKGLGIISSNGKRWKEIRRFSLTTLRNFGMGKRSIEDRVQEEAHCLVEELRKTKASPCDPTFILGCAPCNVICSVVFQKRFDYKDQNFLTLMKRFNENFRILNSPWIQVCNNFPLLIDCFPGTHNKVLKNVALTRSYIREKVKEHQASLDVNNPRDFIDCFLIKMEQEKDNQKSEFNIENLVGTVADLFVAGTETTSTTLRYGLLLLLKHPEVTAKVQEEIDHVIGRHRSPCMQDRSHMPYTDAVVHEIQRYSDLVPTGVPHAVTTDTKFRNYLIPKGTTIMALLTSVLHDDKEFPNPNIFDPGHFLDKNGNFKKSDYFMPFSAGKRICAGEGLARMELFLFLTTILQNFNLKSVDDLKNLNTTAVTKGIVSLPPSYQICFIPV
- Km [2]: 5.0 ± 3.1 µM and 2.2 ± 1.1 µM

B2: CYP2C8*3 (Homo sapiens; K399R/R139K) (protein)
chain: B1 chain with R139K, K399R
- Km [3]: 18.8 ± 8.3 µM and 8.6 ± 2.5 µM

B3: CYP3A5 (Homo sapiens) (protein)
chain: MDLIPNLAVETWLLLAVSLVLLYLYGTRTHGLFKRLGIPGPTPLPLLGNVLSYRQGLWKFDTECYKKYGKMWGTYEGQLPVLAITDPDVIRTVLVKECYSVFTNRRSLGPVGFMKSAISLAEDEEWKRIRSLLSPTFTSGKLKEMFPIIAQYGDVLVRNLRREAEKGKPVTLKDIFGAYSMDVITGTSFGVNIDSLNNPQDPFVESTKKFLKFGFLDPLFLSIILFPFLTPVFEALNVSLFPKDTINFLSKSVNRMKKSRLNDKQKHRLDFLQLMIDSQNSKETESHKALSDLELAAQSIIFIFAGYETTSSVLSFTLYELATHPDVQQKLQKEIDAVLPNKAPPTYDAVVQMEYLDMVVNETLRLFPVAIRLERTCKKDVEINGVFIPKGSMVVIPTYALHHDPKYWTEPEEFRPERFSKKKDSIDPYIYTPFGTGPRNCIGMRFALMNMKLALIRVLQNFSFKPCKETQIPLKLDTQGLLQPEKPIVLKVDSRDGTLSGE
- Km [4]: 19.1 ± 5.0 µM

B4: UGT 1A6 (Homo sapiens) (protein)
chain: DKLLVVPQDGSHWLSMKDIVEVLSDRGHEIVVVVPEVNLLLKESKYYTRKIYPVPYDQEELKNRYQSFGNNHFAERSFLTAPQTEYRNNMIVIGLYFINCQSLLQDRDTLNFFKESKFDALFTDPALPCGVILAEYLGLPSVYLFRGFPCSLEHTFSRSPDPVSYIPRCYTKFSDHMTFSQRVANFLVNLLEPYLFYCLFSKYEELASAVLKRDVDIITLYQKVSVWLLRYDFVLEYPRPVMPNMVFIGGINCKKRKDLSQEFEAYINASGEHGIVVFSLGSMVSEIPEKKAMAIADALGKIPQTVLWRYTGTRPSNLANNTILVKWLPQNDLLGHPMTRAFITHAGSHGVYESICNGVPMVMMPLFGDQMDNAKRMETKGAGVTLNVLEMTSEDLENALKAVINDKSYKENIMRLSSLHKDRPVEPLDLAVFWVEFVMRHKGAPHLRPAAHDLTWYQYHSLDVIGFLLAVVLTVAFITFKCCAYGYRKCLGKKGRVKKAHKSKTH
- Km [5]: 422 ± 46 µM

B5: UGT 1A1 (Homo sapiens) (protein)
chain: HAGKILLIPVDGSHWLSMLGAIQQLQQRGHEIVVLAPDASLYIRDGAFYTLKTYPVPFQREDVKESFVSLGHNVFENDSFLQRVIKTYKKIKKDSAMLLSGCSHLLHNKELMASLAESSFDVMLTDPFLPCSPIVAQYLSLPTVFFLHALPCSLEFEATQCPNPFSYVPRPLSSHSDHMTFLQRVKNMLIAFSQNFLCDVVYSPYATLASEFLQREVTVQDLLSSASVWLFRSDFVKDYPRPIMPNMVFVGGINCLHQNPLSQEFEAYINASGEHGIVVFSLGSMVSEIPEKKAMAIADALGKIPQTVLWRYTGTRPSNLANNTILVKWLPQNDLLGHPMTRAFITHAGSHGVYESICNGVPMVMMPLFGDQMDNAKRMETKGAGVTLNVLEMTSEDLENALKAVINDKSYKENIMRLSSLHKDRPVEPLDLAVFWVEFVMRHKGAPHLRPAAHDLTWYQYHSLDVIGFLLAVVLTVAFITFKCCAYGYRKCLGKKGRVKKAHKSKTH
- Km [6]: 716 ± 87 µM

B6: UGT 1A3 (Homo sapiens) (protein)
chain: GKVLVVPIDGSHWLSMREVLRELHARGHQAVVLTPEVNMHIKEENFFTLTTYAISWTQDEFDRHVLGHTQLYFETEHFLKKFFRSMAMLNNMSLVYHRSCVELLHNEALIRHLNATSFDVVLTDPVNLCAAVLAKYLSIPTVFFLRNIPCDLDFKGTQCPNPSSYIPRLLTTNSDHMTFMQRVKNMLYPLALSYICHAFSAPYASLASELFQREVSVVDILSHASVWLFRGDFVMDYPRPIMPNMVFIGGINCANRKPLSQEFEAYINASGEHGIVVFSLGSMVSEIPEKKAMAIADALGKIPQTVLWRYTGTRPSNLANNTILVKWLPQNDLLGHPMTRAFITHAGSHGVYESICNGVPMVMMPLFGDQMDNAKRMETKGAGVTLNVLEMTSEDLENALKAVINDKSYKENIMRLSSLHKDRPVEPLDLAVFWVEFVMRHKGAPHLRPAAHDLTWYQYHSLDVIGFLLAVVLTVAFITFKCCAYGYRKCLGKKGRVKKAHKSKTH
- Km [7]: 389 ± 53 µM
